Test [1] has as its target T1, CD25 endogenously expressed on SUDHL-1 human lymphoma cell line and induced human Treg (iTreg) (human, UniProt P01589 22-272).
T1 construct: whole, on cells; The cell type (SUDHL-1 or iTreg) is named under assay in each row; also called CD25 on SUDHL-1 and iTreg; CD25 expressing SUDHL-1
T1 sequence (looked up): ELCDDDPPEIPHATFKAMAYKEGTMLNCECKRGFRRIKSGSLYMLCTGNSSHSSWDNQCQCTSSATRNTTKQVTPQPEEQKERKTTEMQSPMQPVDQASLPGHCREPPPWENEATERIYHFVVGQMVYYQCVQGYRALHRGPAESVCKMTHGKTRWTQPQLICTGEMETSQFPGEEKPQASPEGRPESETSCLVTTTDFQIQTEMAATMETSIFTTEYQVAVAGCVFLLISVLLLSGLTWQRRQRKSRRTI
Nature of the test: flow cytometry on SUDHL-1 cells; average of n>=6; SD 38.12. On the technique in general: Flow cytometry measures light scatter and fluorescence of single cells or particles in a stream.

For test [2], the target named is T2, human IL2R on HEK blue human IL2R overexpressing cell line (human, UniProt P01589 22-272; P14784 27-551; P31785 23-369).
T2 sequence (looked up) 1: T1 sequence (looked up)
T2 sequence (looked up) 2: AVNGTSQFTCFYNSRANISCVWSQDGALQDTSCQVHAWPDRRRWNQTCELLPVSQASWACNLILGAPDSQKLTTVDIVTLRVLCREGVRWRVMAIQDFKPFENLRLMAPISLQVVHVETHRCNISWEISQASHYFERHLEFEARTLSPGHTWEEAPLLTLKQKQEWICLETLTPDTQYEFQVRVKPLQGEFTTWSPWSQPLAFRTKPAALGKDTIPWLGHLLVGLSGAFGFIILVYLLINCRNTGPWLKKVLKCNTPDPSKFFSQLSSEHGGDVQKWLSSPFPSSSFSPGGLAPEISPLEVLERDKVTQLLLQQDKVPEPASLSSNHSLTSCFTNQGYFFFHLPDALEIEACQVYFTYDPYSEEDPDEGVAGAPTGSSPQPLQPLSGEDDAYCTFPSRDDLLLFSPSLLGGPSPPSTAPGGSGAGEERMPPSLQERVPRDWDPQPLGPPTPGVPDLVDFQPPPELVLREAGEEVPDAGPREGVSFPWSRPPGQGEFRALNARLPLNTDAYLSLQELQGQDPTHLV
T2 sequence (looked up) 3: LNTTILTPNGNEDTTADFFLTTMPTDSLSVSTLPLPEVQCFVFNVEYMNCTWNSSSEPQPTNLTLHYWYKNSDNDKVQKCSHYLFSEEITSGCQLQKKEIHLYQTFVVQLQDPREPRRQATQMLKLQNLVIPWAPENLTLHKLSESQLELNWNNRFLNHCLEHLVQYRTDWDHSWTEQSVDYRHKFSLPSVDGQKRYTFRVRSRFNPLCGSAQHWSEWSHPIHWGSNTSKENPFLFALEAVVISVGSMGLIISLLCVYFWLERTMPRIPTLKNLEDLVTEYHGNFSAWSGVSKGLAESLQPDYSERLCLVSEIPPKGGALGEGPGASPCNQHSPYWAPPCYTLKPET
Nature of the test: cell-based or functional assay.

In test [3] the target is T3, cynomolgus CD25 (Sino Biologicals, 90265-C08H) (cynomolgus, UniProt H6WS54 22-240).
T3 construct: Bought recombinant protein coated on ELISA plates; also called cynos monkey CD25; immobilized cynomolgus CD25
T3 sequence: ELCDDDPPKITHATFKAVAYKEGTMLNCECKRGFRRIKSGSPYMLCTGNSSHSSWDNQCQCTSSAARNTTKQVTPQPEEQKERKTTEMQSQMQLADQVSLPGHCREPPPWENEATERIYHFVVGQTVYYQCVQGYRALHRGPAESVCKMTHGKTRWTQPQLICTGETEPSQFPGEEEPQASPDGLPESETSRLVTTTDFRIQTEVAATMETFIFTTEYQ
Nature of the test: ELISA, plate coated with cynomolgus CD25; average of n>=3; SD 9.8.

For test [4], the target named is T4, human CD25 (Sino Biologicals, 10165-H08H) (human, UniProt P01589 22-213).
T4 construct: Bought recombinant protein coated on ELISA plates; also called immobilized human CD25; IL2RA
T4 sequence (looked up): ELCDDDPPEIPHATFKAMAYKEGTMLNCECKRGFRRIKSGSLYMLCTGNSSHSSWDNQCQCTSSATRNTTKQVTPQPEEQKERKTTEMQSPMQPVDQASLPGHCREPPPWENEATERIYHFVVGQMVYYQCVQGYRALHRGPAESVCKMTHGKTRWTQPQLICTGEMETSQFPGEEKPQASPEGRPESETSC
Nature of the test: ELISA, plate coated with human CD25; average of n>=3; SD 3.2. (In general: An ELISA detects its analyte on a solid surface through an enzyme-linked reagent.)

Test [5] has as its target T1, CD25 endogenously expressed on SUDHL-1 …. Nature of the test: cell-based or functional assay.
The target is the same in test [6]. The test can be described thus: flow cytometry on iTreg cells; average of n=3; SD 83.94.
The target is the same in test [7]. The test can be described thus: cell-based or functional assay. This is another data set of the same source.
Test [8] concerns the target T5, CD25 (as used on the Carterra LSA) (Homo sapiens (Human), UniProt P01589 22-240).
T5 sequence: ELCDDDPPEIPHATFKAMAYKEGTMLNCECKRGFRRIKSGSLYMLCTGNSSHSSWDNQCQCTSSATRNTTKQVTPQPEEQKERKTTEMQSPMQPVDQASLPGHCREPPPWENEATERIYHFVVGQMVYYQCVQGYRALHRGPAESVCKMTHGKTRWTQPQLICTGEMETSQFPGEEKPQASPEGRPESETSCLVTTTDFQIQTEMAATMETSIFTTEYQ
The test can be described thus: Carterra LSA binding kinetics; KD SD 1.27 nM.

In test [9] the target is T5, CD25 (as used on the Carterra LSA). Nature of the test: Carterra LSA binding kinetics.
In test [10] the target is T4, human CD25 (Sino Biologicals, …). The test can be described thus: ELISA, plate coated with human CD25; average of n>=3; SD 2.5.
Test [11] addresses T3, cynomolgus CD25 (Sino Biologicals, …). Nature of the test: ELISA, plate coated with cynomolgus CD25; average of n>=3; SD 12.3.
Test [12] addresses T5, CD25 (as used on the Carterra LSA). The test can be described thus: Carterra LSA binding kinetics; KD SD 1.03 nM.
In test [13] the target is T1, CD25 endogenously expressed on SUDHL-1 …. Nature of the test: flow cytometry on SUDHL-1 cells; average of n>=6; SD 39.9.
The target is the same in test [14]. Nature of the test: flow cytometry on iTreg cells; average of n=3; SD 40.50.
The target is the same in test [15]. The test can be described thus: flow cytometry on SUDHL-1 cells; average of n>=6; SD 26.2.
In test [16] the target is T3, cynomolgus CD25 (Sino Biologicals, …). The test can be described thus: ELISA, plate coated with cynomolgus CD25; average of n>=3; SD 19.5.
Test [17] concerns the target T1, CD25 endogenously expressed on SUDHL-1 …. The test can be described thus: flow cytometry on iTreg cells; average of n=3; SD 44.59.
For test [18], the target named is T4, human CD25 (Sino Biologicals, …). Nature of the test: ELISA, plate coated with human CD25; average of n>=3; SD 4.9.
The target in test [19] is T5, CD25 (as used on the Carterra LSA). The test can be described thus: Carterra LSA binding kinetics; KD SD 0.37 nM.
Test [20] has as its target T4, human CD25 (Sino Biologicals, …). The test can be described thus: ELISA, plate coated with human CD25; average of n>=3; SD 3.3.
The target in test [21] is T1, CD25 endogenously expressed on SUDHL-1 …. Nature of the test: flow cytometry on SUDHL-1 cells; average of n>=6; SD 39.71.
Test [22] shares this target. The test can be described thus: flow cytometry on iTreg cells; average of n=3; SD 63.88.
Test [23] deals with T5, CD25 (as used on the Carterra LSA). Nature of the test: Carterra LSA binding kinetics; KD SD 0.69 nM.
Test [24] deals with T3, cynomolgus CD25 (Sino Biologicals, …). The test can be described thus: ELISA, plate coated with cynomolgus CD25; average of n>=3; SD 8.8.

B1: IBIO-101-plant-afuc (SD-889825-PC-A; IBIO-101, c-105 plant Afucosylated) (antibody, human IgG1, kappa, V domains shown)
VH: QVQLVQSGAEVKKPGASLKISCKGSGYTFTDYAMHWVRQAPGQGLEWIGVISTYSGDAIYAQKFQGRATMTVDTSTSTAYLELSSLRSEDTAVYYCARGVTFDYWGQGTTVTVSS
VL: DIQMTQSPSSLSASVGDRVTITCRASQDISNYLEWYQQKPGKAPKLLVYNAKTLAEGVPSRFSGSGSGTDFTLTISSLQPEDFGTYYCQHHYDTPYTFGQGTKLEIKR
notes: Same antibody made in C105 deltaXT/FT N. benthamiana plants, glycans without fucose and xylose; also called RTX-003; hD11
Consider B1, for which the EC50 (usually the concentration needed to bring the measured effect to its halfway point) in test [1] was found to be 0.123 µg/mL; in test [3] it was 0.0424 µg/mL; in [4], 0.0174 µg/mL; in test [6], 0.218 µg/mL. For the same molecule, the “EC50, IL-2 reporter HEK293 pSTAT5 assay (activation of STAT5 by IL2 in presence of the antibody)” value (“EC50, IL-2 reporter HEK293 pSTAT5 assay” for short) in test [2] stood at 0.17 ng/ml. Moreover, the “EC50, iTreg/NFAT CD16 ADCC reporter assay” value in test [5] was determined as 0.00714 µg/mL. Further, the “EC50, SUDHL-1/NFAT CD16 ADCC reporter assay” value in [7] came out at 0.0089 µg/mL. The Kd (commonly the equilibrium constant for the complex coming apart) in test [8] amounted to 4.27 nM. In addition, in test [9], the koff (as a rule, the first-order rate constant of dissociation) was found to be 0.00207 s⁻¹. Besides, the kon (in general, the rate constant with which the complex forms) in test [9] is 492000 M⁻¹ s⁻¹.

B2: IBIO-101-CHO-afuc (SD-889825-CG-A; IBIO-101, CHO cells Afucosylated) (antibody, human IgG1, kappa, V domains shown)
VH: B1 VH
VL: B1 VL
notes: Same antibody made in CHO cells, afucosylated glycans; also called RTX-003; hD11
Consider B2, for which the “EC50, IL-2 reporter HEK293 pSTAT5 assay” value in test [2] came to 0.17 ng/ml. Besides, in test [5], the “EC50, iTreg/NFAT CD16 ADCC reporter assay” value amounted to 0.00471 µg/mL. Further, the EC50 in test [10] amounted to 0.0156 µg/mL; in test [11], 0.0431 µg/mL; in test [13], 0.126 µg/mL; in [14], 0.219 µg/mL. The same molecule displayed a Kd in test [12] of 3.9 nM. Also, in test [7], the “EC50, SUDHL-1/NFAT CD16 ADCC reporter assay” value is 0.0072 µg/mL. In [9], this molecule gave a koff of 0.00119 s⁻¹. This molecule also yielded a kon in [9] of 499000 M⁻¹ s⁻¹.

B3: IBIO-101-CHO-WT (SD-889825-CW-A; IBIO-101, wild-type CHO cells) (antibody, human IgG1, kappa, V domains shown)
VH: B1 VH
VL: B1 VL
notes: The signal peptide is marked only by bold print (lost here); also called RTX-003; hD11
Take B3: the “EC50, IL-2 reporter HEK293 pSTAT5 assay” value in [2] worked out at 0.17 ng/ml. The EC50 in [15] was found to be 0.123 µg/mL; in [16], 0.0544 µg/mL; in test [17], 0.223 µg/mL; in test [18], 0.0199 µg/mL. In test [5], the “EC50, iTreg/NFAT CD16 ADCC reporter assay” value amounted to 0.0538 µg/mL. Further, the “EC50, SUDHL-1/NFAT CD16 ADCC reporter assay” value in test [7] came to 0.0845 µg/mL. In test [19], this molecule gave a Kd of 4.1 nM. Besides, in test [9], the koff is 0.00192 s⁻¹. For the same molecule, in test [9], the kon was 471000 M⁻¹ s⁻¹.

B4: IBIO-101-plant-WT (SD-889825-PW-A; IBIO-101, wild-type plant) (antibody, human IgG1, kappa, V domains shown)
VH: B1 VH
VL: B1 VL
notes: Same antibody made in wild-type Nicotiana benthamiana plants; also called RTX-003; hD11
Turning to B4, the “EC50, IL-2 reporter HEK293 pSTAT5 assay” value in test [2] stood at 0.21 ng/ml. Besides, the concentration giving a half-maximal response (EC50) was 0.016 µg/mL in test [20], 0.126 µg/mL in test [21], 0.235 µg/mL in [22] and 0.0439 µg/mL in test [24]. The “EC50, iTreg/NFAT CD16 ADCC reporter assay” value in test [5] was determined as 0.0303 µg/mL. In addition, the “EC50, SUDHL-1/NFAT CD16 ADCC reporter assay” value in test [7] was 0.0325 µg/mL. Moreover, the affinity in test [23], expressed as Kd, was 4.2 nM. In test [9], the koff is 0.0012 s⁻¹. This molecule gave a kon in test [9] of 485000 M⁻¹ s⁻¹.
